Experimental data published in IntAct's records for PubMed 33420071.

B1: Dual oxidase 1 (Homo sapiens), Q9NRD9 (parent)
chain: MGFCLALAWTLLVGAWTPLGAQNPISWEVQRFDGWYNNLMEHRWGSKGSRLQRLVPASYADGVYQPLGEPHLPNPRDLSNTISRGPAGLASLRNRTVLGVFFGYHVLSDLVSVETPGCPAEFLNIRIPPGDPMFDPDQRGDVVLPFQRSRWDPETGRSPSNPRDPANQVTGWLDGSAIYGSSHSWSDALRSFSRGQLASGPDPAFPRDSQNPLLMWAAPDPATGQNGPRGLYAFGAERGNREPFLQALGLLWFRYHNLWAQRLARQHPDWEDEELFQHARKRVIATYQNIAVYEWLPSFLQKTLPEYTGYRPFLDPSISSEFVAASEQFLSTMVPPGVYMRNASCHFQGVINRNSSVSRALRVCNSYWSREHPSLQSAEDVDALLLGMASQIAEREDHVLVEDVRDFWPGPLKFSRTDHLASCLQRGRDLGLPSYTKARAALGLSPITRWQDINPALSRSNDTVLEATAALYNQDLSWLELLPGGLLESHRDPGPLFSTIVLEQFVRLRDGDRYWFENTRNGLFSKKEIEEIRNTTLQDVLVAVINIDPSALQPNVFVWHKGDPCPQPRQLSTEGLPACAPSVVRDYFEGSGFGFGVTIGTLCCFPLVSLLSAWIVARLRMRNFKRLQGQDRQSIVSEKLVGGMEALEWQGHKEPCRPVLVYLQPGQIRVVDGRLTVLRTIQLQPPQKVNFVLSSNRGRRTLLLKIPKEYDLVLLFNLEEERQALVENLRGALKESGLSIQEWELREQELMRAAVTREQRRHLLETFFRHLFSQVLDINQADAGTLPLDSSQKVREALTCELSRAEFAESLGLKPQDMFVESMFSLADKDGNGYLSFREFLDILVVFMKGSPEEKSRLMFRMYDFDGNGLISKDEFIRMLRSFIEISNNCLSKAQLAEVVESMFRESGFQDKEELTWEDFHFMLRDHNSELRFTQLCVKGVEVPEVIKDLCRRASYISQDMICPSPRVSARCSRSDIETELTPQRLQCPMDTDPPQEIRRRFGKKVTSFQPLLFTEAHREKFQRSCLHQTVQQFKRFIENYRRHIGCVAVFYAIAGGLFLERAYYYAFAAHHTGITDTTRVGIILSRGTAASISFMFSYILLTMCRNLITFLRETFLNRYVPFDAAVDFHRLIASTAIVLTVLHSVGHVVNVYLFSISPLSVLSCLFPGLFHDDGSELPQKYYWWFFQTVPGLTGVVLLLILAIMYVFASHHFRRRSFRGFWLTHHLYILLYVLLIIHGSFALIQLPRFHIFFLVPAIIYGGDKLVSLSRKKVEISVVKAELLPSGVTHLRFQRPQGFEYKSGQWVRIACLALGTTEYHPFTLTSAPHEDTLSLHIRAAGPWTTRLREIYSAPTGDRCARYPKLYLDGPFGEGHQEWHKFEVSVLVGGGIGVTPFASILKDLVFKSSVSCQVFCKKIYFIWVTRTQRQFEWLADIIREVEENDHQDLVSVHIYITQLAEKFDLRTTMLYICERHFQKVLNRSLFTGLRSITHFGRPPFEPFFNSLQEVHPQVRKIGVFSCGPPGMTKNVEKACQLINRQDRTHFSHHYENF
partner: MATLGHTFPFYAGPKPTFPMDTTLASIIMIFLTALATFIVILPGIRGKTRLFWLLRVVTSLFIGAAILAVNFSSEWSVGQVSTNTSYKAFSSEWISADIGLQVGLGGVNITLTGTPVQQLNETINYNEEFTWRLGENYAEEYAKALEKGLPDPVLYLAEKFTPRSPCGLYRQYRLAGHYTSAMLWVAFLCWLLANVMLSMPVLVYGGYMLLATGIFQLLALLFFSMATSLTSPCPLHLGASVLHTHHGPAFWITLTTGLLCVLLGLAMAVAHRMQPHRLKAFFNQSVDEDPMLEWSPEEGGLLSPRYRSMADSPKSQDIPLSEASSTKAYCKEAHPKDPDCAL

Variants of: B1
Settings: with doxa1_human DUOXA1, Q1HG43

Effect of a mutation on the interaction, disrupting interaction strength:
R507E
R507A
R50E
